Experimental data taken from publication PMC8983844.

Biological target: protein A (UniProt P38507)
Assay: spectral-domain phase-sensitive interferometry (SD-PSI), label-free; protein A (0.5 mg/ml) adsorbed on a dopamine layer on a glass chip (0.17 or 0.20 mm) and blocked with protein-free blocking solution; IgG solution (20 ug/ml mouse IgG; gradient of 10, 20, 30, 50 ug/ml IgG) passed through the flow chamber; PBS washes; reference path without protein A

**Q.** With mouse IgG (antibody) as the substance, how does the phase change at 20 ug/ml IgG read?
**A.** Its phase change at 20 ug/ml IgG is 0.04 rad.

**Q.** And the thickness variation at 10 ug/ml IgG?
**A.** The thickness variation at 10 ug/ml IgG was 1.86 nm.

**Q.** And the thickness variation at 20 ug/ml IgG?
**A.** The thickness variation at 20 ug/ml IgG was 3.76 nm.

**Q.** What about the thickness variation at 30 ug/ml IgG of the same substance?
**A.** The thickness variation at 30 ug/ml IgG was 5.45 nm.

**Q.** What about the thickness variation at 50 ug/ml IgG of the same substance?
**A.** Its thickness variation at 50 ug/ml IgG is 10.1 nm.
